Assay [1] concerns the target Canine CD20 (canine) (UniProt Q3C2E2). Put plainly: FACS on CHO cells expressing recombinant canine CD20.
Assay [2] shares this target. Nature of the assay: cell-based or functional assay.

Sequence of Canine CD20 (canine) (Q3C2E2 other isoform, or with tags, fused parts or gaps): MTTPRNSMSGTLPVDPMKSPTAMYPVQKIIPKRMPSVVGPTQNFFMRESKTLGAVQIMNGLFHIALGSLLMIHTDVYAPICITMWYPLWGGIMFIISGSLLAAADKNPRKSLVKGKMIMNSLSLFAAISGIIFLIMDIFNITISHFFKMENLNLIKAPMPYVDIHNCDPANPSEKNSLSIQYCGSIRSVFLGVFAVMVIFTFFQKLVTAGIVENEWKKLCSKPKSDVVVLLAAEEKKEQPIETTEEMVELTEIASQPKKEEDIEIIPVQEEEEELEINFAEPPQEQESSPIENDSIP

B1: anti-canine CD20 antibody CD20-4 (antibody, part only; not given: light chain, V domains shown, part only)
VH: EVQLQQSVAELVRPGASVTLSCKASGYTFTDYEMHWVKQTPVHGLEWIGEIDPETGGTAYNQKFKGKAILTADKSSSTAYMELRSLTSEDSAVYYCTEYAMDYWGQGTSVTVSS
B1: the dissociation constant Kd in the assay with Canine CD20 (canine) [1] stood at 77.4 nM. This molecule also returned a Reduction (%) of cell proliferation of lymphoma cells with Canine CD20 (canine) [2] of 17.5%.

For orientation: Kd means the concentration at which binding is half-saturated.
